Substitutions are numbered along the chain they refer to. Ends that are not written are not given here.
Columns and labels:
[1] = target: T1, ErbB-4 receptor-Ig fusion (human, UniProt Q15303 26-651; Q15303 26-640); experiment: phage ELISA, competition with soluble ErbB-4-Ig; against wild-type HRG-β1 177-244 on phage
[2] = target: T2, ErbB-3 receptor-Ig fusion (human, UniProt P21860 20-643; P21860 20-636); experiment: phage ELISA, competition with soluble ErbB-3-Ig; against wild-type HRG-β1 177-244 on phage
[3] = target: T1, ErbB-4 receptor-Ig fusion; experiment: 125I-HRG-β1 177-244 displacement, ErbB-4-Ig on plate
[4] = target: T2, ErbB-3 receptor-Ig fusion; experiment: 125I-HRG-β1 177-244 displacement, ErbB-3-Ig on plate
[5] = target: ErbB-2/3 receptor-Ig fusion (human, UniProt P04626 23-652; P04626 23-645; P21860 20-643; P04626 23-645); experiment: phage ELISA, competition with soluble ErbB-2/3-Ig
Experimental: (§1) Microtiter plates (Nunc Maxisorp™ 96-well plates, Inter Med, Denmark) for phage ELISA were prepared as follows. The wells were precoated overnight with 0.5 μg of rabbit anti-human IgG (Fc gamma fragment-specific) antibodies (Jackson Immunoresearch, West Grove, Pa.) in 100 μL 50 mM NaCO₃ (pH 9.6). The wells were blocked for 30 minutes (min) with 200 μL PBS containing 0.1% bovine serum albumin (BSA) and rinsed with wash buffer (PBS containing 0.05% Tween 20™). The wells were then coated with 0.1 μg ErbB-2/3-Ig in binding buffer (PBS, 0.1% BSA, 0.05% Tween 20™) for 1 h, and washed again.
(§2) Following incubation for 2 h at room temperature, plates were washed extensively and treated with a 1:900 dilution of anti-M13 horseradish peroxidase conjugate (Pharmacia, Piscataway, N.J.) for 20 min. The amount of phage binding was determined by assaying horseradish peroxidase activity using o-phenylenediamine dihydrochloride) substrate solution (Sigma Chemical Company, St. Louis, Mo.).

[6] = target: T1, ErbB-4 receptor-Ig fusion; experiment: phage ELISA, competition with soluble ErbB-4-Ig; against HRG8
[7] = target: T2, ErbB-3 receptor-Ig fusion; experiment: phage ELISA, competition with soluble ErbB-3-Ig; against HRG8
Experimental: as §1, §2

[8] = target: ErbB-2/3 heterodimers on MCF7 breast cancer carcinoma cells (UniProt P04626); experiment: cell-based or functional assay
[9] = target: ErbB-2/3 receptor-Ig fusion (human) (UniProt P04626); experiment: 125I-HRG displacement, ErbB-2/3-Ig on plate
[10] = target: ErbB-2/3 receptor-Ig fusion (human) (UniProt P04626); experiment: phage ELISA, competition with soluble ErbB-2/3-Ig

T1 sequence (Q15303 other isoform, or with tags, fused parts or gaps): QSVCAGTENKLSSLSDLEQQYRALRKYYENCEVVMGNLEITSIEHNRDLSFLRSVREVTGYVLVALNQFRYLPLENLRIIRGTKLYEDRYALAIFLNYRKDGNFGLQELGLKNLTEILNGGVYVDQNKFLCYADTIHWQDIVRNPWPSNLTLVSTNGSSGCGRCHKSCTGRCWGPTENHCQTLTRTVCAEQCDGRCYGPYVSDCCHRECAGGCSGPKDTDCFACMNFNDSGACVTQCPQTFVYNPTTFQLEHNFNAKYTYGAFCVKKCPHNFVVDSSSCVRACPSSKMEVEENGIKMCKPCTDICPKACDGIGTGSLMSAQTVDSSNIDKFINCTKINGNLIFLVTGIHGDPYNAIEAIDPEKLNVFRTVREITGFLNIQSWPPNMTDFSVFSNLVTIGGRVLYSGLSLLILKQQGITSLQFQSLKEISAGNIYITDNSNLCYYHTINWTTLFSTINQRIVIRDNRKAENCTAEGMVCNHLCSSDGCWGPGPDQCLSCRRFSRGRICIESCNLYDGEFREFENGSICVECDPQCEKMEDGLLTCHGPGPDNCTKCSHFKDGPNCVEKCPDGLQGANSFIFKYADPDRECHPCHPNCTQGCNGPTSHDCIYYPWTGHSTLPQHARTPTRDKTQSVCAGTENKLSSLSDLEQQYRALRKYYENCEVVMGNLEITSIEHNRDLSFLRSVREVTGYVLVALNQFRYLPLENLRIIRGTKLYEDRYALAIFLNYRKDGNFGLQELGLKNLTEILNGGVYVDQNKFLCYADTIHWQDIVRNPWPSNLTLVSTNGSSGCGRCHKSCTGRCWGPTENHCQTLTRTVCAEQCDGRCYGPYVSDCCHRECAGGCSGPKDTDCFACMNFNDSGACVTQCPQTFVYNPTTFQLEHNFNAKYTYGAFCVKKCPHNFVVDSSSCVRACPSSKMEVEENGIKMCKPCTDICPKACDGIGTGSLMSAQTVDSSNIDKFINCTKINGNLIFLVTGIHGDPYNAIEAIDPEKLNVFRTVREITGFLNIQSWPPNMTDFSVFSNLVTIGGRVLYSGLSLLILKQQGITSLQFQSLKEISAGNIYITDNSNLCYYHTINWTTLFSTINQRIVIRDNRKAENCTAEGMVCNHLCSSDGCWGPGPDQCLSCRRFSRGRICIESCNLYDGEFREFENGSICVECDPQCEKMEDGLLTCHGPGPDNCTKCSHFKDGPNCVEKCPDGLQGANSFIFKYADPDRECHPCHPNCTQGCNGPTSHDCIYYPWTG

In the case of “HRG-β1 177-244 H178D L179V displayed on phage (Example 4 clone) (from UniProt Q02297 177-244) (ligand)”, the EC50 Mut/WT [1] is reported as 2 and the EC50 Mut/WT [2] is reported as 2.2.

“HRG-β1 177-244 H178E displayed on phage (Example 4 clone) (from UniProt Q02297 177-244) (ligand)” gave an EC50 Mut/WT [1] of 1.7 and an EC50 Mut/WT [2] of 9.5.

“HRG-β1 177-244 H178L displayed on phage (Example 4 clone) (from UniProt Q02297 177-244) (ligand)” gave an EC50 Mut/WT [1] of 1.2 and an EC50 Mut/WT [2] of 1.4.

With “HRG-β1 177-244 H178L with 228-231 replaced by Met, displayed on phage (Example 4 clone) (from UniProt Q02297 177-227; Q02297 232-244) (ligand)” the EC50 Mut/WT [1] was 1.7 and the EC50 Mut/WT [2] was 6.4.

Molecule “HRG-β1 177-244 H178W with 228-231 replaced by Met, displayed on phage (Example 4 clone) (from UniProt Q02297 177-227; Q02297 232-244) (ligand)” has an EC50 Mut/WT [1] of 1.7 and an EC50 Mut/WT [2] of 1.2.

“HRG-β1 177-244 L179V displayed on phage (Example 4 clone) (from UniProt Q02297 177-244) (ligand)” gave an EC50 Mut/WT [1] of 1.6 and an EC50 Mut/WT [2] of 1.5.

With “HRG-β1 177-244 R207P displayed on phage (Example 4 clone) (from UniProt Q02297 177-244) (ligand)” the EC50 Mut/WT [1] was 1.3 and the EC50 Mut/WT [2] was 6.1.

“Trx-HRG-β1 146-244 E195A fusion (from UniProt Q02297 146-244) (ligand)” gave an EC50 [3] of 13.2 nM and an EC50 [4] of 42 nM.

“Trx-HRG-β1 146-244 E215A fusion (from UniProt Q02297 146-244) (ligand)” showed an EC50 [3] of 104 nM and an EC50 [4] of 156 nM.

“Trx-HRG-β1 146-244 F189A fusion (from UniProt Q02297 146-244) (ligand)” showed an EC50 [3] of 565 nM and an EC50 [4] of 975 nM.

In the case of “Trx-HRG-β1 146-244 F216A fusion (from UniProt Q02297 146-244) (ligand)”, the EC50 [3] is reported as 173 nM and the EC50 [4] is reported as 2550 nM.

For “Trx-HRG-β1 146-244 F229A fusion (from UniProt Q02297 146-244) (ligand)”, the EC50 [3] was 89.9 nM and the EC50 [4] was 177 nM.

“Trx-HRG-β1 146-244 G193A fusion (from UniProt Q02297 146-244) (ligand)” showed an EC50 [3] of 76.3 nM and an EC50 [4] of 26.9 nM.

“Trx-HRG-β1 146-244 G194A fusion (from UniProt Q02297 146-244) (ligand)” showed an EC50 [3] of 275 nM and an EC50 [4] of 1210 nM.

Work on “Trx-HRG-β1 146-244 G218A fusion (from UniProt Q02297 146-244) (ligand)” yielded an EC50 [3] of 608 nM and an EC50 [4] of 668 nM.

Molecule “Trx-HRG-β1 146-244 H178A fusion (from UniProt Q02297 146-244) (ligand)” has an EC50 [3] of 138 nM and an EC50 [4] of 476 nM.

“Trx-HRG-β1 146-244 K200A fusion (from UniProt Q02297 146-244) (ligand)” was tested, and the EC50 [3] was 16.9 nM and the EC50 [4] was 45.4 nM.

With “Trx-HRG-β1 146-244 K211A fusion (from UniProt Q02297 146-244) (ligand)” the EC50 [3] was 124 nM and the EC50 [4] was 248 nM.

Work on “Trx-HRG-β1 146-244 L179A fusion (from UniProt Q02297 146-244) (ligand)” yielded an EC50 [3] of 51.7 nM and an EC50 [4] of 394 nM.

With “Trx-HRG-β1 146-244 N192A fusion (from UniProt Q02297 146-244) (ligand)” the EC50 [3] was 696 nM and the EC50 [4] was 1640 nM.

“Trx-HRG-β1 146-244 P205A fusion (from UniProt Q02297 146-244) (ligand)” was tested, and the EC50 [3] was 34.2 nM and the EC50 [4] was 39.5 nM.

Work on “Trx-HRG-β1 146-244 R207A fusion (from UniProt Q02297 146-244) (ligand)” yielded an EC50 [3] of 24.3 nM and an EC50 [4] of 245 nM.

“Trx-HRG-β1 146-244 S177A fusion (from UniProt Q02297 146-244) (ligand)” showed an EC50 [3] of 54.6 nM and an EC50 [4] of 129 nM.

“Trx-HRG-β1 146-244 T217A fusion (from UniProt Q02297 146-244) (ligand)” was tested, and the EC50 [3] was 32.7 nM and the EC50 [4] was 145 nM.

Work on “Trx-HRG-β1 146-244 V199A fusion (from UniProt Q02297 146-244) (ligand)” yielded an EC50 [3] of 246 nM.

Molecule “Trx-HRG-β1 146-244 Y224A fusion (from UniProt Q02297 146-244) (ligand)” has an EC50 [3] of 24.5 nM and an EC50 [4] of 339 nM.

B1: HRG6 (HRG-β1 177-227 fused to pIII 247, displayed on phage) (ligand, human, UniProt Q02297-6 177-227, looked up, not shown: large carriers)
chain: SHLVKCAEKEKTFCVNGGECFMVKDLSNPSRYLCKCPNEFTGDRCQNYVMA
modifications: not fully specified (C-terminus); ends and bridges not checked
notes: monovalent phage display; Ala227 restored from pHRG1-g3; also called pHRG6-g3
B1 was tested, and the EC50 [5] was 40 nM.

B2: HRG-β1 EGF variant G1 displayed on phage (ligand, not shown: large carriers; small tags and cut ends)
chain: SHLVKCAEKEKTFCVNGGECFMVKDLSNPSRYLCRCSLEFTGDRCQNYVMAS-{(GGGS)3-M13 pIII C‑terminal fragment from residue 323}
modifications: ends and bridges not checked
notes: monovalent phage display, pHRG8-g3 background
For B2, the “EC50 (wt)/EC50 (mut)” value [6] was 1.6 ratio and the “EC50 (wt)/EC50 (mut)” value [7] was 1.2 ratio.

B3: soluble wild-type HRG-β1 EGF (HRG8) (ligand, human, UniProt Q02297-6 177-228, looked up)
chain: SHLVKCAEKEKTFCVNGGECFMVKDLSNPSRYLCKCPNEFTGDRCQNYVMAS
modifications: ends and bridges not checked; cysteine pairing not given here
Molecule B3 has a KIRA EC50 (ErbB-2 tyrosine phosphorylation on MCF7 cells) [8] of 0.212 nM and an EC50 [9] of 0.033 nM.

B4: HRG7 (HRG-β1 177-228 fused to pIII 247, displayed on phage) (ligand, human, UniProt Q02297-6 177-228, looked up, not shown: large carriers)
chain: B3 chain
modifications: not fully specified (C-terminus); ends and bridges not checked
B4 gave an EC50 [10] of 42 nM.

B5: HRG-β1 EGF variant A3 displayed on phage (ligand, human, not shown: large carriers)
chain: WELVPCAEKEKTFCVNGGECFMVKDLSNPSRYLCKCPNEFTGDRCQNYVMASGGGSGGGSGGGS
notes: as for B2
In the case of B5, the “EC50 (wt)/EC50 (mut)” value [6] is reported as 1.1 ratio and the “EC50 (wt)/EC50 (mut)” value [7] is reported as 0.96 ratio.

B6: HRG-β1 EGF variant I1 displayed on phage (ligand, human, not shown: large carriers)
chain: B5 chain with W1S, E2H, P5K, N47W, M50I
notes: as for B2
With B6 the “EC50 (wt)/EC50 (mut)” value [7] was 13 ratio.

B7: HRG-β1 EGF variant D4 displayed on phage (ligand, human, not shown: large carriers)
chain: B5 chain with W1S, E2H, P5K, F21Y, M22R, D25T
notes: as for B2
For B7, the “EC50 (wt)/EC50 (mut)” value [6] was 5 ratio and the “EC50 (wt)/EC50 (mut)” value [7] was 2.9 ratio.

B8: HRG90 (HRG-β1 EGF Met226Ile) displayed on phage (ligand, human, not shown: large carriers)
chain: B5 chain with W1S, E2H, P5K, M50I
notes: monovalent phage display
B8 was tested, and the “EC50 (wt)/EC50 (mut)” value [7] was 6.3 ratio.

B9: HRG-β1 EGF variant B3 displayed on phage (ligand, human, not shown: large carriers)
chain: B5 chain with W1S, E2H, P5K, A7G, K9E, E10R, K11E, T12G
notes: as for B2
B9 was tested, and the “EC50 (wt)/EC50 (mut)” value [6] was 1.7 ratio and the “EC50 (wt)/EC50 (mut)” value [7] was 4.7 ratio.

B10: HRG-β1 EGF variant I2 displayed on phage (ligand, human, not shown: large carriers)
chain: B5 chain with W1S, E2H, P5K, N47H, M50I
notes: as for B2
For B10, the “EC50 (wt)/EC50 (mut)” value [6] was 10 ratio and the “EC50 (wt)/EC50 (mut)” value [7] was 20 ratio.

B11: HRG4 (HRG-β1 147-227 fused to pIII 247, displayed on phage) (ligand, human, UniProt Q02297-6 147-227, looked up, not shown: large carriers)
chain: YVSSESPIRISVSTEGANTSSSTSTSTTGTSHLVKCAEKEKTFCVNGGECFMVKDLSNPSRYLCKCPNEFTGDRCQNYVMA
notes: range 147-227; monovalent phage display; also called pHRG4-g3
In the case of B11, the EC50 [5] is reported as 38 nM.

B12: HRG5 (HRG-β1 147-244 fused to pIII 247, displayed on phage) (ligand, human, UniProt Q02297-6 147-244, looked up, not shown: large carriers)
chain: YVSSESPIRISVSTEGANTSSSTSTSTTGTSHLVKCAEKEKTFCVNGGECFMVKDLSNPSRYLCKCPNEFTGDRCQNYVMASFYKHLGIEFMEAEELY
notes: monovalent phage display; also called pHRG5-g3
Work on B12 yielded an EC50 [5] of 4.7 nM.

B13: HRG73 combination variant displayed on phage (ligand, human, not shown: large carriers)
chain: SHLVKCGEEREGFCVNGGECYRVKTYGYLMCKCPNEFTGDRCQHYVIASGGGSGGGSGGGS
notes: monovalent phage display; also called B3+D4+E2+I2
For B13, the “EC50 (wt)/EC50 (mut)” value [6] was 16 ratio and the “EC50 (wt)/EC50 (mut)” value [7] was 56 ratio.

B14: HRG37 combination variant displayed on phage (ligand, not shown: large carriers; small tags and cut ends)
chain: WELVPCGWDREGFCVNGGECFMVKDLSNPSRYLCKCPNEFTGDRCQNYVIAS-{(GGGS)3-M13 pIII C‑terminal fragment from residue 323}
modifications: ends and bridges not checked
notes: as for B2
With B14 the “EC50 (wt)/EC50 (mut)” value [7] was 13 ratio.

B15: HRG11 (HRG-β1 177-230 fused via GGGSGGG to pIII 247, displayed on phage) (ligand, human, not shown: large carriers)
chain: SHLVKCAEKEKTFCVNGGECFMVKDLSNPSRYLCKCPNEFTGDRCQNYVMASFYGGGSGGG
notes: monovalent phage display; also called pHRG11-g3
B15 showed an EC50 [5] of 19 nM.

B16: HRG-β1 EGF variant E2 displayed on phage (ligand, human, not shown: large carriers)
chain: SHLVKCAEKEKTFCVNGGECFMVKDYGYLMCKCPNEFTGDRCQNYVMASGGGSGGGSGGGS
notes: monovalent phage display
For B16, the “EC50 (wt)/EC50 (mut)” value [6] was 7.6 ratio and the “EC50 (wt)/EC50 (mut)” value [7] was 28 ratio.

B17: HRG-β1 EGF variant E8 displayed on phage (ligand, not shown: large carriers; small tags and cut ends)
chain: SHLVKCAEKEKTFCVNGGECFMVKDTKYRGCKCPNEFTGDRCQNYVMAS-{(GGGS)3-M13 pIII C‑terminal fragment from residue 323}
modifications: ends and bridges not checked
notes: monovalent phage display; library E carries the 202-204 deletion
With B17 the “EC50 (wt)/EC50 (mut)” value [7] was 17 ratio.
